Experimental data as given in patent US20250333497A1, “ACTIVATING ANTIBODIES OF RECEPTOR PROTEINS PLXDC1 AND PLXDC2” (THE REGENTS OF THE UNIVERSITY OF CALIFORNIA, priority 2022, published 2025).
Changes are numbered by the printed parent chain.

How the values were obtained:
[1] = test system: human lung tumor endothelial cells expressing PLXDC1; assay: Ex vivo tumor angiogenesis model: killing of tumor endothelial cells; format: cell-based; details: signal day 1 vs day 8, 500 nM printed for 3-G7
Protocol: The following protocol describes the Ex Vivo Tumor Angiogenesis Model.
1. The day before the experiment, all necessary tools were sprayed with 70% ethanol and sterilized under UV light overnight, including blade, dissecting and micro-dissecting scissors and […]. 24-well dishes were placed at 4° C. to pre-chill plates and Matrigel was thawed, 24 hours before tumor dissection.
2. 70% ethanol was sprayed on working bench. Two sterile petri dishes were prepared with 10 ml sterile PBS. The following steps 3 and 4 are necessary for mouse tumor models. For fresh human tumor, steps 3 and 4 are skipped.
3. The tumor-bearing mice were euthanized. 70% ethanol was sprayed on the mouse and the tumor was removed using sterilized dissecting tools (avoid the fur). The tumor was rinsed in petri dish with sterile PBS to remove ethanol and fur. The tumor was transferred to a new petri dish with PBS for dissection. The dish is placed on ice.
4. […]
9. When the assay was ready to be analyzed for cell death (e.g., 48 hours after drug addition), the dye mixture was prepared by mixing 6 μl of green dye to stain live cells (5 mg/ml Fluorescein diacetate or FDA in DMSO) with 30 μl of red dye (2.5 mg/ml Propidium iodide or PI in PBS) to stain dead cells in an Eppendorf tube. […]
14. Taking pictures in the red and green channels would allow not only the recording of the results but also more accurate quantitation of the results. […]

PLXDC1 [2] = assay: Promotor activity in PLXDC1-expressing cells (activation of PLXDC signaling); format: cell-based
Description: This example tested some of the identified antibodies for their activity in activating PLXDC signaling.

[3] = target: T1, full length PLXDC1 (PLXDC1-Full) (Homo sapiens, UniProt Q8IUK5); assay: Domain A binding specificity: binding to full length PLXDC1 expressed in transfected cells; details: for binding to PLXDC1: antibodies of Table 3 tested for ability to bind Domain A; for binding to full length PLXDC1 (PLXDC1-Full): transfected into a cell line that does not express PLXDC1, FIG. 3-4
T1 construct: expressed in transfected cells
T1 sequence (Q8IUK5 19-500): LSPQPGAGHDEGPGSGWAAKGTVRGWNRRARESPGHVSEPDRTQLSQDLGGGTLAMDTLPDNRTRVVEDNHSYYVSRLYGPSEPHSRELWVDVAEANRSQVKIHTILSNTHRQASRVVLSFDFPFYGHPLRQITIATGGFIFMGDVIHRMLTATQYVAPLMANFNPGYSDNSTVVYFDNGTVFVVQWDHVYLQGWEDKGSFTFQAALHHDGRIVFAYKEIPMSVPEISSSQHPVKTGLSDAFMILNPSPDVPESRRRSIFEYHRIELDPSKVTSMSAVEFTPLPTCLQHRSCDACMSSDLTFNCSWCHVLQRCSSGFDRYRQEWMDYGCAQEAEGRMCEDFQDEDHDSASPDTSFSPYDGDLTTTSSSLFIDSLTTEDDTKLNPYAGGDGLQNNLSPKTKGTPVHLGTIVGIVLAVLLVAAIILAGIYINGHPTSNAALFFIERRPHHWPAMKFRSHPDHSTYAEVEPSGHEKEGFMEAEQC
Description: (§1) The specific binding to Domain A of a PLXDC protein can be tested with a method described herein. In some embodiments, the method employs a PLXDC with the Domain A deleted. […] An example is Compound 369 as described above.
(§2) The Domain A-binding antibodies are 3-C11, 4-A8, 5-E2, 2-H2, 3-G6, 3-G7, 8-A7, 8-A9, 8-C9 and 8-D9.
(§3) Both full length PLXDC1 and Domain A deleted PLXDC1 (PLXDC1-dA) have an epitope tag on the N-terminus.

[4] = target: T2, Domain A-deleted PLXDC1 (PLXDC1-dA) (Homo sapiens, UniProt Q8IUK5); assay: Domain A binding specificity: binding to Domain A-deleted PLXDC1 expressed in transfected cells; details: for binding to PLXDC1 mutant with Domain A deleted: antibodies of Table 3 tested for ability to bind Domain A; for binding to Domain A-deleted PLXDC1 (PLXDC1-dA): transfected into a cell line that does not express PLXDC1, FIG. 3-4
T2 construct: expressed in transfected cells
Description: as §1, §2, §3

PLXDC1 [5] = assay: Antibody binding to PLXDC1 with and without small molecule agonist compound 369 (FIG. 5)

B1: A006: VH SEQ ID NO:72, VL SEQ ID NO:73; Domain A-binding PLXDC1-activating antibody (antibody, V domains shown)
VH: QVQLVQSGAEVKKPGSSVKVSCKASGGTFSTEYISWVRQAPGQGLEWMGRIIPVLGITNYAQKFQGRVTITADESTSTAYMELSSLRSEDTAVYYCARHLGPPYLVTYSHGFDVWGQGTLVTVSS
VL: EIVMTQSPATLSVSPGERATLSCRASQSLGTNLAWYQQKPGQAPRLLIYGASTRATGIPARFSGSGSGTEFTLTISSLQSEDFAVYYCQQYYEAPPTFGQGTKVEIK
death of tumor endothelial cells expressing PLXDC1 [1]: led to the death of tumor endothelial cells expressing PLXDC1
promotor activity in PLXDC1-expressing cells (PLXDC1 [2]; PLXDC1-expressing cells): activated the promotor activity
promotor activity in cells without PLXDC1 (PLXDC1 [2]; cells without PLXDC1): not in cells without PLXDC1
binding to PLXDC1 [3]: able to bind PLXDC1
binding to full length PLXDC1 (PLXDC1-Full) [3]: only bound to full length PLXDC1
binding to PLXDC1 mutant with Domain A deleted [4]: not the mutant with Domain A deleted
binding to Domain A-deleted PLXDC1 (PLXDC1-dA) [4]: did not bind to Domain A-deleted PLXDC1
affinity to PLXDC1 when compound 369 was added (PLXDC1 [5]; small molecule agonist compound 369 present, FIG. 5 upper curve): greatly higher affinity
affinity to standalone PLXDC1 (PLXDC1 [5]; without compound 369, FIG. 5 lower curve): low nM affinity

B2: A007: VH SEQ ID NO:112, VL SEQ ID NO:113; Domain A-binding PLXDC1-activating antibody (antibody, V domains shown)
VH: EVQLLESGGGLVQPGGSLRLSCAASGFTFRNYAMSWVRQAPGKGLEWVSSISGGGINTYYADSVKGRFTISRDNSKNTLYLQMNSLRAEDTAVYYCARVRSYSGPGYFDYWGQGTLVTVSS
VL: B1 VL with E17D, Q27R, L29V, G30S, T31S, E93N, A94W, P96L
binding to PLXDC1 [3]: able to bind PLXDC1
binding to full length PLXDC1 (PLXDC1-Full) [3]: only bound to full length PLXDC1
binding to PLXDC1 mutant with Domain A deleted [4]: not the mutant with Domain A deleted
binding to Domain A-deleted PLXDC1 (PLXDC1-dA) [4]: did not bind to Domain A-deleted PLXDC1

B3: A008: VH SEQ ID NO:116, VL SEQ ID NO:117; Domain A-binding PLXDC1-activating antibody (antibody, V domains shown)
VH: EVQLLESGGGLVQPGGSLRLSCAASGFTFSNYAMSWVRQAPGKGLEWVSAISGGGSRTYYADSVKGRFTISRDNSKNTLYLQMNSLRAEDTAVYYCAREARVLGYSLDYWGQGTLVTVSS
VL: DIQMTQSPSSLSASVGDRVTITCRASQRIGKYLNWYQQKPGKAPKLLIYAASSLQSGVPSRFSGSGSGTDFTLTISSLQPEDFATYYCQQSYSYPLTFGQGTKVEIK
binding to PLXDC1 [3]: able to bind PLXDC1
binding to PLXDC1 mutant with Domain A deleted [4]: not the mutant with Domain A deleted
